Results as given in the supplement of paper PMC10201428.
± gives the standard deviation of the averaged measurements.

Key:
[1] = test system: VchCAST RNA-guided transposition machinery (E. coli BL21(DE3) host, lacZ target); test: relative integration efficiency (T-RL orientation) vs wild-type transposon end (log2 (normalized fold change)); transposon end mutated: right end (5 bp flank + 75 bp right end); higher = more efficient transposition
Method in brief: (§1)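 A T7-driven effector plasmid encoding a CRISPR array, tniQ-cas8-cas7-cas6 and tnsA-tnsB-tnsC was co-transformed into E. coli BL21(DE3) together with a pUC57 mini-transposon donor holding barcoded pools of 1549 left-end or 1849 right-end variants. Transformants were plated with 0.1 mM IPTG at 37°C for 18 h. Illumina sequencing of PCR-amplified input plasmids and genomic integration junctions gave barcode abundances, and relative integration efficiency is their output/input fold change, normalised to reference barcodes and log-transformed.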

[2] = test system: VchCAST RNA-guided transposition machinery (E. coli BL21(DE3) host, lacZ target); test: relative integration efficiency (T-LR orientation) vs wild-type transposon end (log2 (normalized fold change)); transposon end mutated: right end (5 bp flank + 75 bp right end); higher = more efficient transposition
Method in brief: as §1

## ACATTTGTTGATACACCCATAAATTGATATTGCCAACCATAAGTTGATATTTTTCAGTGGGTATTTAACTATAACGCTCTGATCATAGTCAGACCAACATTGCTACGACCCGTATTCGCACCGACAC
[1]
  relative integration efficiency (log2): -1.31 ± 0.4
[2]
  relative integration efficiency (log2): 2.3 ± 0.092

## ACATTTGTTGATACAACCATAAAATGATAATTACTCTGATCATAGTCAGACCAACATTGCTACGACCCGTATTCGCACCGACACAACGACTATATTTACACCCATAAATTGATAATTATCAGTGGGT
[1]
  relative integration efficiency (log2): -1.358 ± 0.0083
[2]
  relative integration efficiency (log2): 1.81 ± 0.28

## ACATTTGTTGATACAACCATTAAATGCTAATTCCACCCATAAATTGATAATTATCACACCCAATTTAACTATAACGCTCTGATCATAGTCAGACCAACATTGCTACGACCCGTATTCGCACCGACAC
[1]
  relative integration efficiency (log2): -0.972 ± 0.32
[2]
  relative integration efficiency (log2): 2.09 ± 0.22

## ACATTTGTTGATACAACCATAAAATGATAATTACACCCATAAATTGATAATTATCACACCCATAAATTGATATCTCTGATCATAGTCAGACCAACATTGCTACGACCCGTATTCGCACCGACACTGA
[1]
  relative integration efficiency (log2): -0.049 ± 0.013
[2]
  relative integration efficiency (log2): -0.209 ± 0.13

## ACATTTGTTGATACAACCATAAAATGATAATTACACCCCGCCATTGATAATTATCACACCCATAAATTGATATTGCCTCTGATCATAGTCAGACCAACATTGCTACGACCCGTATTCGCACCGACAC
[1]
  relative integration efficiency (log2): -3.5 ± 0.22
[2]
  relative integration efficiency (log2): -2.56 ± 0.28

## ACATTTGTTGATACAACCATAAAATGATAATTACACCCATAAATTGATACGGCTCACACCCATAAATTGATATTGCCTCTGATCATAGTCAGACCAACATTGCTACGACCCGTATTCGCACCGACAC
[1]
  relative integration efficiency (log2): -0.622 ± 0.074
[2]
  relative integration efficiency (log2): 0.173 ± 0.15

## ACATTTGTTGATACAACCATAAAAGTCGAATTACACCCATAAATTGATAATTATCACACCCATAAATTGATATTGCCTCTGATCATAGTCAGACCAACATTGCTACGACCCGTATTCGCACCGACAC
[1]
  relative integration efficiency (log2): -2.69 ± 0.26
[2]
  relative integration efficiency (log2): -3.24 ± 0.7

## ACATTTGTTGATACAACCATAAAATGATACGGCACAAACGCCCGGTCGCCGGCGACACAAACGCCCGGTCGCGGTAAGAGGATCATAGTCAGACCAACATTGCTACGACCCGTATTCGCACCGACAC
[1]
  relative integration efficiency (log2): -2.2 ± 0.14
[2]
  relative integration efficiency (log2): 0.976 ± 0.29

## ACATTTGTCGATCCAACCATAAAATGATAATTACACCCATAAATTGATAATTATCACACCCAATTTAACTATAACGCTCTGATCATAGTCAGACCAACATTGCTACGACCCGTATTCGCACCGACAC
[1]
  relative integration efficiency (log2): -0.969 ± 0.28
[2]
  relative integration efficiency (log2): 2.2 ± 0.23

## ACATTTGTTGATACACCCATAAATTGATATTGCCAACCATATATTGATATCTCTCACAACCATAAAATGATAATTACTCTGATCATAGTCAGACCAACATTGCTACGACCCGTATTCGCACCGACAC
[1]
  relative integration efficiency (log2): -1.22 ± 0.23
[2]
  relative integration efficiency (log2): -0.955 ± 0.52

## ACATTTGTTGATACAACCATAAAATGATAATTACACCCATAAATTCTATATTATCACACCCATAAATTGATATTGCCTCTGATCATAGTCAGACCAACATTGCTACGACCCGTATTCGCACCGACAC
[1]
  relative integration efficiency (log2): -2.002 ± 0.013
[2]
  relative integration efficiency (log2): -0.688 ± 0.11

## ACATTTGTTGATACAACCATAAAATGATAATTACACCCATAAATTGATAATTATCAACAAACGCCCGGTCGCGGTAAGAGGATCATAGTCAGACCAACATTGCTACGACCCGTATTCGCACCGACAC
[1]
  relative integration efficiency (log2): -0.451 ± 0.085
[2]
  relative integration efficiency (log2): 2.49 ± 0.05

## ACATTTGTTGATACAACCATAAAATGATAATTAATAATTATTTATAATCAGCAACTTAACCACCCATAAATTGATAATTATCACACCCATAAATTGATATTGCCTCTGATCATAGTCAGACCAACAT
[1]
  relative integration efficiency (log2): -3.17 ± 0.073
[2]
  relative integration efficiency (log2): -1.2 ± 2.8

## ACATTTGTTGATACAACCATAAAATGATAATTACACCCATAAATTGTAAATTATCACACCCATAAATTGATATTGCCTCTGATCATAGTCAGACCAACATTGCTACGACCCGTATTCGCACCGACAC
[1]
  relative integration efficiency (log2): -0.602 ± 0.1
[2]
  relative integration efficiency (log2): -0.553 ± 0.24

## ACATTGGTTCATACAACCATAAAATGATAATTACACCCATAAATTCATCATTATCACACCCAATTTAACTATAACGCTCTGATCATAGTCAGACCAACATTGCTACGACCCGTATTCGCACCGACAC
[1]
  relative integration efficiency (log2): -7.13 ± 0.28
[2]
  relative integration efficiency (log2): -6.18 ± 1.9

## ACATTTGTTGATACAACCATAAAATCATAATTACACCCATCAATTGATAATTATCCCACCCAATTTAACTATAACGCTCTGATCATAGTCAGACCAACATTGCTACGACCCGTATTCGCACCGACAC
[1]
  relative integration efficiency (log2): -3.92 ± 0.52
[2]
  relative integration efficiency (log2): -0.195 ± 0.066

## ACATTTGTGGATACAACCATAAAATGATAATTACACCCATAAATTCATCATTATCACCCCCAATTTAACTATAACGCTCTGATCATAGTCAGACCAACATTGCTACGACCCGTATTCGCACCGACAC
[1]
  relative integration efficiency (log2): -1.88 ± 0.43
[2]
  relative integration efficiency (log2): 1.385 ± 0.0021

## ACATTTGTTGATACAACCATAAAATGATAATTACAACCATAAAATGATAATTATCAGTGGGTATTTAACTATAACGCTCTGATCATAGTCAGACCAACATTGCTACGACCCGTATTCGCACCGACAC
[1]
  relative integration efficiency (log2): -0.267 ± 0.21
[2]
  relative integration efficiency (log2): 2.54 ± 0.061

## ACATTTGTTGATACAACCATAAAAGGATCATTACCCCCATAAATTGATAATTATCACACCCCATTTAACTATAACGCTCTGATCATAGTCAGACCAACATTGCTACGACCCGTATTCGCACCGACAC
[1]
  relative integration efficiency (log2): -2.55 ± 0.35
[2]
  relative integration efficiency (log2): 1.16 ± 0.12

## ACATTTGTTCATACAACCATAAAATGATAATTACACCCATAAATGGATAATTATCACCCCCAATTTAACTATAACGCTCTGATCATAGTCAGACCAACATTGCTACGACCCGTATTCGCACCGACAC
[1]
  relative integration efficiency (log2): -1 ± 0.35
[2]
  relative integration efficiency (log2): 0.23 ± 0.071

## ACATTTGTTGATACAACCAATAAATGATAATTACACCCATAAATTGATAATTGTGACACCGAATTTAACTATAACGCTCTGATCATAGTCAGACCAACATTGCTACGACCCGTATTCGCACCGACAC
[1]
  relative integration efficiency (log2): -1.29 ± 0.29
[2]
  relative integration efficiency (log2): 2.09 ± 0.064

## ACATTTGTTGATACAACCATAAAATGATAATTACACCCATAAATTGATAATTATCACACCCATAAATTGATATTGCCTCTGATAACTTCGTATAAAGTATCCTATACGAAGTTATTCGCACCGACAC
[1]
  relative integration efficiency (log2): -0.255 ± 0.26
[2]
  relative integration efficiency (log2): 0.85 ± 0.066

## ACATTTGTTGATACACCCATAAATTGATAATTACAACCATAAGTTGATATTTTTCACAACCATATATTGATATCTCCTCTGATCATAGTCAGACCAACATTGCTACGACCCGTATTCGCACCGACAC
[1]
  relative integration efficiency (log2): -0.626 ± 0.19
[2]
  relative integration efficiency (log2): -0.393 ± 0.46

## ACATTTGTTGATATAATTATCATTTTATGGTTGCAACCATAAAATGATAATTATGATAATTATCATTTTATGGTTGCTCTGATCATAGTCAGACCAACATTGCTACGACCCGTATTCGCACCGACAC
[1]
  relative integration efficiency (log2): -2.97 ± 0.69
[2]
  relative integration efficiency (log2): -4.33 ± 0.53

## ACATTTGTTGATACAACCATAAGTTGATATTTTCAACCATAAGTTGATATTTTTCACAACCATATATTGATATCTCCTCTGATCATAGTCAGACCAACATTGCTACGACCCGTATTCGCACCGACAC
[1]
  relative integration efficiency (log2): -0.102 ± 0.021
[2]
  relative integration efficiency (log2): -0.115 ± 0.22

## ACATTTGTTGATACAACCATAAAATGATAATTACACCCATAAATTGATAATTATCACACCCATAAATTGATATTGCCTCTTCTTTGCTCACGCATCTAGTCGGTCCACGTTTGGTTCGCACCGACAC
[1]
  relative integration efficiency (log2): -0.231 ± 0.37
[2]
  relative integration efficiency (log2): -0.129 ± 0.28

## ACATTTGTTGATACCACCATCAAATGATAATTCCACCCCTAAATTGATAATTATCACACCCAATTTAACTATAACGCTCTGATCATAGTCAGACCAACATTGCTACGACCCGTATTCGCACCGACAC
[1]
  relative integration efficiency (log2): -5.24 ± 0.34
[2]
  relative integration efficiency (log2): -2.31 ± 0.042

## ACATTTGTTGATACAACCATAAAATGATAATTACACCCATAAATTCATTATTATCACACCCAATTTAACTATAACGCTCTGATCATAGTCAGACCAACATTGCTACGACCCGTATTCGCACCGACAC
[1]
  relative integration efficiency (log2): -2.74 ± 0.49
[2]
  relative integration efficiency (log2): 0.845 ± 0.28

## ACATTTGTTGATACACCCATAAATTGATAATTACAACCATAAGTTGATATTTTTCAGTGGGTATTTAACTATAACGCTCTGATCATAGTCAGACCAACATTGCTACGACCCGTATTCGCACCGACAC
[1]
  relative integration efficiency (log2): -0.128 ± 0.33
[2]
  relative integration efficiency (log2): 2.821 ± 0.028

## ACATTTGTTGATACAACCATAAAATGATAATTACACCCATAAATTGATAATTATCACACCCATAAATTGATATTGCCTCTCGCGAGAGGCCGGCAGCCGTCTGGCGTCGGGTGGCGGGCACCGACAC
[1]
  relative integration efficiency (log2): 0.713 ± 0.16
[2]
  relative integration efficiency (log2): 0.646 ± 0.53

## ACATTTGTTGATACAACCATTAAATGATAATTACACCCATAATTTGATAATTATCACACCCAATTTAACTATAACGCTCTGATCATAGTCAGACCAACATTGCTACGACCCGTATTCGCACCGACAC
[1]
  relative integration efficiency (log2): -0.76 ± 0.025
[2]
  relative integration efficiency (log2): 2.23 ± 0.16

## ACATTTGTTGATACAACCATAAAATGATAATTACACCCATAAATTGATAATTATCACAAAACGCCCGGTCGCGGTAAGAGGATCATAGTCAGACCAACATTGCTACGACCCGTATTCGCACCGACAC
[1]
  relative integration efficiency (log2): -0.437 ± 0.16
[2]
  relative integration efficiency (log2): 2.81 ± 0.094

## ACATTTGTTGATACAACCATAAAATGATAATTACTCTGATCATAGTCAGACCAACATTCACCCATAAATTGATAATTATCACACCCATAAATTGATATTGCGCTACGACCCGTATTCGCACCGACAC
[1]
  relative integration efficiency (log2): -4.53 ± 0.13
[2]
  relative integration efficiency (log2): -2.04 ± 0.32

## ACATTTGTTGATACAACCATAAGTTGATATTTTCAACCATATATTGATATCTCTCACAACCATAAAATGATAATTACTCTGATCATAGTCAGACCAACATTGCTACGACCCGTATTCGCACCGACAC
[1]
  relative integration efficiency (log2): -0.54 ± 0.12
[2]
  relative integration efficiency (log2): -0.461 ± 0.17

## ACATTTGTTGATACAACCATATATTGATATCTCCACCCATAAATTGATATTGCTCACACCCATAAATTGATATTGCCTCTGATCATAGTCAGACCAACATTGCTACGACCCGTATTCGCACCGACAC
[1]
  relative integration efficiency (log2): -0.524 ± 0.027
[2]
  relative integration efficiency (log2): 0.466 ± 0.081
